Experimental data from the RNAGym collection of RNA variant scans (doi:10.7554/elife.90254).

B1: LINE1-full (parent)
chain: UACGUAGGUGGUUUUCCCCUGAUAGUGCUAAGGGGGCCUGGAAGUUUGGACUGGGCAGAGCUCAACACAGCGUGGCAAAGUGGCUGUGGCUAGACUGCCUCUCUGGAUUCCUCGUCACUCAGCAGGGCAUCUCUGAGAGAAAUGCC

Variants of: B1
Assay: self-cleavage, relative activity (ratio to wild type); higher = more cleavage; in vitro, sequencing; the parent is a self-cleaving ribozyme
With UACGUAGGUGGUUUUCCCCUGAUAGUGCUAAGGGGGCCUGGAAGUUUGGACUGGGCAGAGCUCAACACAGCGUGGCAAAGUGGCUGUGGCUAGACUGCCUCUCUGGAUUCCUCGUCAAUCAGCAGGGCAUCUCUGAGUGAAAUGCC [C118A A138U] the self-cleavage was 1.47. For UACGUAGGUGGUUUUCCCCUGAUAGUGCUAAGGGGGCCUGGAAGUUUGGACUGGGCAGAGCUCAACACAGCGUGGCAAAGUGGCUGUGGCUAGACUGCCUCUCUGGAUUCCUCGUCACACGGCAGGGCAUCUCUGAGAGAAAUGCC [U119A A121G], the self-cleavage was 1.27. UACGUAGGUGGUUUUCCCCUGAUAGUGCUAAGGGGGCCUGGAAGUUUGGACUGGGCAGAGCUCAACACAGCGUGGCAAAGUGGCUGUGGCUAGACUGCCUCUCUGGAUUCCUCGUCACACAGCAGGGCAUCUCUGAGAGAACUGCC [U119A A142C] gave a self-cleavage of 1.95. In the case of UACGUAGGUGGUUUUCCCCUGAUAGUGCUAAGGGGGCCUGGAAGUUUGGACUGGGCAGAGCUCAACACAGCGUGGCAAAGUGGCUGUGGCUAGACUGCCUCUCUGGAUUCCUCGUCAAUCAGCAGGGCAUCUCUGAGAGAAGUGCC [C118A A142G], the self-cleavage is reported as 1.41. Work on UACGUAGGUGGUUUUCCCCUGAUAGUGCUAAGGGGGCCUGGAAGUUUGGACUGGGCAGAGCUCAACACAGCGUGGCAAAGUGGCUGUGGCUAGACUGCCUCUCUGGAUUCCUCGUCAUUCAGCAGGGCACCUCUGAGAGAAAUGCC [C118U U130C] yielded a self-cleavage of 0.97. For UACGUAGGUGGUUUUCCCCUGAUAGUGCUAAGGGGGCCUGGAAGUUUGGACUGGGCAGAGCUCAACACAGCGUGGCAAAGUGGCUGUGGCUAGACUGCCUCUCUGGAUUCCUCGUCAGUCAGCAGGGCAUCACUGAGAGAAAUGCC [C118G U132A], the self-cleavage was 1.21. UACGUAGGUGGUUUUCCCCUGAUAGUGCUAAGGGGGCCUGGAAGUUUGGACUGGGCAGAGCUCAACACAGCGUGGCAAAGUGGCUGUGGCUAGACUGCCUCUCUGGAUUCCUCGUCACACAGCAGGGCGUCUCUGAGAGAAAUGCC [U119A A129G] gave a self-cleavage of 1.45. Work on UACGUAGGUGGUUUUCCCCUGAUAGUGCUAAGGGGGCCUGGAAGUUUGGACUGGGCAGAGCUCAACACAGCGUGGCAAAGUGGCUGUGGCUAGACUGCCUCUCUGGAUUCCUCGUCAUUCAGCUGGGCAUCUCUGAGAGAAAUGCC [C118U A124U] yielded a self-cleavage of 1.04. With UACGUAGGUGGUUUUCCCCUGAUAGUGCUAAGGGGGCCUGGAAGUUUGGACUGGGCAGAGCUCAACACAGCGUGGCAAAGUGGCUGUGGCUAGACUGCCUCUCUGGAUUCCUCGUCUCUCAGCAGGGCAUCUCUGAGAGAAAAGCC [A117U U143A] the self-cleavage was 1.23. Work on UACGUAGGUGGUUUUCCCCUGAUAGUGCUAAGGGGGCCUGGAAGUUUGGACUGGGCAGAGCUCAACACAGCGUGGCAAAGUGGCUGUGGCUAGACUGCCUCUCUGGAUUCCUCGUCACCCAGCAGGGCAUCUCUGAGUGAAAUGCC [U119C A138U] yielded a self-cleavage of 1.67. UACGUAGGUGGUUUUCCCCUGAUAGUGCUAAGGGGGCCUGGAAGUUUGGACUGGGCAGAGCUCAACACAGCGUGGCAAAGUGGCUGUGGCUAGACUGCCUCUCUGGAUUCCUCGUCUCUCAGCAGGGCAUCACUGAGAGAAAUGCC [A117U U132A] gave a self-cleavage of 1.32. In the case of UACGUAGGUGGUUUUCCCCUGAUAGUGCUAAGGGGGCCUGGAAGUUUGGACUGGGCAGAGCUCAACACAGCGUGGCAAAGUGGCUGUGGCUAGACUGCCUCUCUGGAUUCCUCGUCACCCAGCAGGGCGUCUCUGAGAGAAAUGCC [U119C A129G], the self-cleavage is reported as 1.88. UACGUAGGUGGUUUUCCCCUGAUAGUGCUAAGGGGGCCUGGAAGUUUGGACUGGGCAGAGCUCAACACAGCGUGGCAAAGUGGCUGUGGCUAGACUGCCUCUCUGGAUUCCUCGUCAUUCGGCAGGGCAUCUCUGAGAGAAAUGCC [C118U A121G] gave a self-cleavage of 1.58. With UACGUAGGUGGUUUUCCCCUGAUAGUGCUAAGGGGGCCUGGAAGUUUGGACUGGGCAGAGCUCAACACAGCGUGGCAAAGUGGCUGUGGCUAGACUGCCUCUCUGGAUUCCUCGUCACACAGCAGGGCAUCUCUGAGAGUAAUGCC [U119A A140U] the self-cleavage was 1.69. UACGUAGGUGGUUUUCCCCUGAUAGUGCUAAGGGGGCCUGGAAGUUUGGACUGGGCAGAGCUCAACACAGCGUGGCAAAGUGGCUGUGGCUAGACUGCCUCUCUGGAUUCCUCGUCACACAGCAGGGCAUCUCUGAGAGGAAUGCC [U119A A140G] showed a self-cleavage of 1.29. Variant UACGUAGGUGGUUUUCCCCUGAUAGUGCUAAGGGGGCCUGGAAGUUUGGACUGGGCAGAGCUCAACACAGCGUGGCAAAGUGGCUGUGGCUAGACUGCCUCUCUGGAUUCCUCGUCACCCAGCAGGGCAUCUCUGAGAGAUAUGCC [U119C A141U] has a self-cleavage of 2.27. In the case of UACGUAGGUGGUUUUCCCCUGAUAGUGCUAAGGGGGCCUGGAAGUUUGGACUGGGCAGAGCUCAACACAGCGUGGCAAAGUGGCUGUGGCUAGACUGCCUCUCUGGAUUCCUCGUCACCCAGCAGGGCAUCUCUGAGAGACAUGCC [U119C A141C], the self-cleavage is reported as 1.84. UACGUAGGUGGUUUUCCCCUGAUAGUGCUAAGGGGGCCUGGAAGUUUGGACUGGGCAGAGCUCAACACAGCGUGGCAAAGUGGCUGUGGCUAGACUGCCUCUCUGGAUUCCUCGUCACACAGCAGGGCAUCUCUGGGAGAAAUGCC [U119A A136G] gave a self-cleavage of 1.12. With UACGUAGGUGGUUUUCCCCUGAUAGUGCUAAGGGGGCCUGGAAGUUUGGACUGGGCAGAGCUCAACACAGCGUGGCAAAGUGGCUGUGGCUAGACUGCCUCUCUGGAUUCCUCGUCAAUCAGCAUGGCAUCUCUGAGAGAAAUGCC [C118A G125U] the self-cleavage was 1.03. UACGUAGGUGGUUUUCCCCUGAUAGUGCUAAGGGGGCCUGGAAGUUUGGACUGGGCAGAGCUCAACACAGCGUGGCAAAGUGGCUGUGGCUAGACUGCCUCUCUGGAUUCCUCGUCAUUCAGCAGGGCAUCCCUGAGAGAAAUGCC [C118U U132C] gave a self-cleavage of 1.81. Work on UACGUAGGUGGUUUUCCCCUGAUAGUGCUAAGGGGGCCUGGAAGUUUGGACUGGGCAGAGCUCAACACAGCGUGGCAAAGUGGCUGUGGCUAGACUGCCUCUCUGGAUUCCUCGUCACACAGCAGGGCAUCUCUGAGAGAGAUGCC [U119A A141G] yielded a self-cleavage of 1.74. UACGUAGGUGGUUUUCCCCUGAUAGUGCUAAGGGGGCCUGGAAGUUUGGACUGGGCAGAGCUCAACACAGCGUGGCAAAGUGGCUGUGGCUAGACUGCCUCUCUGGAUUCCUCGUCACACAGCAGGGCAUCUCUGAGGGAAAUGCC [U119A A138G] gave a self-cleavage of 2.02. In the case of UACGUAGGUGGUUUUCCCCUGAUAGUGCUAAGGGGGCCUGGAAGUUUGGACUGGGCAGAGCUCAACACAGCGUGGCAAAGUGGCUGUGGCUAGACUGCCUCUCUGGAUUCCUCGUCUCUCAGCAGGGCACCUCUGAGAGAAAUGCC [A117U U130C], the self-cleavage is reported as 1.58. UACGUAGGUGGUUUUCCCCUGAUAGUGCUAAGGGGGCCUGGAAGUUUGGACUGGGCAGAGCUCAACACAGCGUGGCAAAGUGGCUGUGGCUAGACUGCCUCUCUGGAUUCCUCGUCAUUCAGCAGGGCAUCUCAGAGAGAAAUGCC [C118U U134A] showed a self-cleavage of 1.11. For UACGUAGGUGGUUUUCCCCUGAUAGUGCUAAGGGGGCCUGGAAGUUUGGACUGGGCAGAGCUCAACACAGCGUGGCAAAGUGGCUGUGGCUAGACUGCCUCUCUGGAUUCCUCGUCAUUCAGCAGGGCAUCUCUGAGAGAAACGCC [C118U U143C], the self-cleavage was 0.87. UACGUAGGUGGUUUUCCCCUGAUAGUGCUAAGGGGGCCUGGAAGUUUGGACUGGGCAGAGCUCAACACAGCGUGGCAAAGUGGCUGUGGCUAGACUGCCUCUCUGGAUUCCUCGUCACCCAGCAGGGCAUCUCUGAGAGUAAUGCC [U119C A140U] showed a self-cleavage of 0.97. Work on UACGUAGGUGGUUUUCCCCUGAUAGUGCUAAGGGGGCCUGGAAGUUUGGACUGGGCAGAGCUCAACACAGCGUGGCAAAGUGGCUGUGGCUAGACUGCCUCUCUGGAUUCCUCGUCAUUCAGCAGGGCAUCUCUGAGAGAAAUGUC [C118U C145U] yielded a self-cleavage of 0.86. For UACGUAGGUGGUUUUCCCCUGAUAGUGCUAAGGGGGCCUGGAAGUUUGGACUGGGCAGAGCUCAACACAGCGUGGCAAAGUGGCUGUGGCUAGACUGCCUCUCUGGAUUCCUCGUCACACAGCAGGGCAUCCCUGAGAGAAAUGCC [U119A U132C], the self-cleavage was 1.96. In the case of UACGUAGGUGGUUUUCCCCUGAUAGUGCUAAGGGGGCCUGGAAGUUUGGACUGGGCAGAGCUCAACACAGCGUGGCAAAGUGGCUGUGGCUAGACUGCCUCUCUGGAUUCCUCGUCAAUCAGCAGGGCAUCCCUGAGAGAAAUGCC [C118A U132C], the self-cleavage is reported as 1. Work on UACGUAGGUGGUUUUCCCCUGAUAGUGCUAAGGGGGCCUGGAAGUUUGGACUGGGCAGAGCUCAACACAGCGUGGCAAAGUGGCUGUGGCUAGACUGCCUCUCUGGAUUCCUCGUCACACAGCAGGGCAUCUCUGAGAGAAAUGCC [U119A] yielded a self-cleavage of 1.44. In the case of UACGUAGGUGGUUUUCCCCUGAUAGUGCUAAGGGGGCCUGGAAGUUUGGACUGGGCAGAGCUCAACACAGCGUGGCAAAGUGGCUGUGGCUAGACUGCCUCUCUGGAUUCCUCGUCACCCAGCAGGGCAUCUCUGAGAGAAAUGCC [U119C], the self-cleavage is reported as 1.59. UACGUAGGUGGUUUUCCCCUGAUAGUGCUAAGGGGGCCUGGAAGUUUGGACUGGGCAGAGCUCAACACAGCGUGGCAAAGUGGCUGUGGCUAGACUGCCUCUCUGGAUUCCUCGUCACACAGCAGGGCAUCUCUGAGAGAAAUACC [U119A G144A] showed a self-cleavage of 1.68. UACGUAGGUGGUUUUCCCCUGAUAGUGCUAAGGGGGCCUGGAAGUUUGGACUGGGCAGAGCUCAACACAGCGUGGCAAAGUGGCUGUGGCUAGACUGCCUCUCUGGAUUCCUCGUCACACAACAGGGCAUCUCUGAGAGAAAUGCC [U119A G122A] showed a self-cleavage of 1.35. UACGUAGGUGGUUUUCCCCUGAUAGUGCUAAGGGGGCCUGGAAGUUUGGACUGGGCAGAGCUCAACACAGCGUGGCAAAGUGGCUGUGGCUAGACUGCCUCUCUGGAUUCCUCGUCAAUCAGCAGGGCGUCUCUGAGAGAAAUGCC [C118A A129G] showed a self-cleavage of 1.1. For UACGUAGGUGGUUUUCCCCUGAUAGUGCUAAGGGGGCCUGGAAGUUUGGACUGGGCAGAGCUCAACACAGCGUGGCAAAGUGGCUGUGGCUAGACUGCCUCUCUGGAUUCCUCGUCAUUCAGCAGGGCGUCUCUGAGAGAAAUGCC [C118U A129G], the self-cleavage was 1.81. Work on UACGUAGGUGGUUUUCCCCUGAUAGUGCUAAGGGGGCCUGGAAGUUUGGACUGGGCAGAGCUCAACACAGCGUGGCAAAGUGGCUGUGGCUAGACUGCCUCUCUGGAUUCCUCGUCAUUCAGCAGGGCAUCUCUGAGAGAUAUGCC [C118U A141U] yielded a self-cleavage of 1.6. Variant UACGUAGGUGGUUUUCCCCUGAUAGUGCUAAGGGGGCCUGGAAGUUUGGACUGGGCAGAGCUCAACACAGCGUGGCAAAGUGGCUGUGGCUAGACUGCCUCUCUGGAUUCCUCGUCAUUCAGCAGGGCAUCUCUGAGAGAGAUGCC [C118U A141G] has a self-cleavage of 1.8. UACGUAGGUGGUUUUCCCCUGAUAGUGCUAAGGGGGCCUGGAAGUUUGGACUGGGCAGAGCUCAACACAGCGUGGCAAAGUGGCUGUGGCUAGACUGCCUCUCUGGAUUCCUCGUCACACAGCAGGGCAUCUCUGAGAGAAAAGCC [U119A U143A] showed a self-cleavage of 1.16. In the case of UACGUAGGUGGUUUUCCCCUGAUAGUGCUAAGGGGGCCUGGAAGUUUGGACUGGGCAGAGCUCAACACAGCGUGGCAAAGUGGCUGUGGCUAGACUGCCUCUCUGGAUUCCUCGUCACCCGGCAGGGCAUCUCUGAGAGAAAUGCC [U119C A121G], the self-cleavage is reported as 1.23.
